This is an account of results in article PMC11615109, “PinX1 suppresses cancer progression by inhibiting telomerase activity in cervical squamous cell carcinoma and endocervical adenocarcinoma” (Genes & Diseases, 2024).

The stoichiometry N is a count of units in the complex or per binding partner.

The target of experiment [1] is TRF1 TRFH (TRF homology) domain. Briefly: crystal structure; purified TRF1 TRFH-PinX1TBM complex, 2.7 Å.
The target of experiment [2] is T1, 3×Flag-TERT (purified human telomerase) (human, UniProt O14746 1-1132).
T1 construct: TERT, the protein subunit of human telomerase; Purified as telomerase; also called purified telomerase; source: human telomerase, purified
T1 sequence (O14746 whole entry): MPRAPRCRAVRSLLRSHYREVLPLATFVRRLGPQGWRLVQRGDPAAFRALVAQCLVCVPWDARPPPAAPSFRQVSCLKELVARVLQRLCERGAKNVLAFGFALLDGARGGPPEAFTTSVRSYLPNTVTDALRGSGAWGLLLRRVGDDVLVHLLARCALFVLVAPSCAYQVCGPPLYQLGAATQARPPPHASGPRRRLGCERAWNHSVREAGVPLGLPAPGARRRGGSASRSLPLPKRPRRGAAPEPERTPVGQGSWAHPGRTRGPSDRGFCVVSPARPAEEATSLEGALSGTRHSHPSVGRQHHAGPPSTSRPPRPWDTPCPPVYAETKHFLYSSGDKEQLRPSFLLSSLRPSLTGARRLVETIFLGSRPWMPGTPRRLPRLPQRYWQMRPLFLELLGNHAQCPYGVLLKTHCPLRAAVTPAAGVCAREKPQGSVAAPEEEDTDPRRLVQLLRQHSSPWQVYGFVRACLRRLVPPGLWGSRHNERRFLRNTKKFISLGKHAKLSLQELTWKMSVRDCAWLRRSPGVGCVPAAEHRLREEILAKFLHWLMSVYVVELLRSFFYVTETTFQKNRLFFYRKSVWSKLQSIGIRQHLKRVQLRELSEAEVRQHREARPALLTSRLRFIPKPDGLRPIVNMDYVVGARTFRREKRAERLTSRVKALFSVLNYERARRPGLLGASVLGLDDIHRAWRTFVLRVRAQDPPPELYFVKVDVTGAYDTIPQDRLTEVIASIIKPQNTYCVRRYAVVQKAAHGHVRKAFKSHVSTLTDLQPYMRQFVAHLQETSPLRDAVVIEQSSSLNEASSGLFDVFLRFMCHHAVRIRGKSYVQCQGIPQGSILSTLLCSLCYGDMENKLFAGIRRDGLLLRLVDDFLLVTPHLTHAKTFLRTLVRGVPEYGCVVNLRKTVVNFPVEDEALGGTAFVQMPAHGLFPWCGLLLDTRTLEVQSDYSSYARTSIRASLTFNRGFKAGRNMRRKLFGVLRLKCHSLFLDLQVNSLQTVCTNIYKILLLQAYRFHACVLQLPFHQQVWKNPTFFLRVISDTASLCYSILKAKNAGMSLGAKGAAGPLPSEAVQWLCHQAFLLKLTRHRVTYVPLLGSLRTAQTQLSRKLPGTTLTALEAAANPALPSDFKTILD
Briefly: pull-down; GST-PinX1-C (132-328) captured by 3×Flag-TERT (MBP-3×Flag as control), Western blot. The conditions noted are these: both partners purified. A general note: Immunoblotting shows a protein as a band on a membrane.

Experiment [3] deals with T1, 3×Flag-TERT (purified human telomerase). Put plainly: pull-down; 3×Flag-TERT (purified telomerase) captured by GST-PinX1 constructs (GST as control), silver staining and Western blot. The conditions noted are these: both partners purified.

“TRF1 TRFH (TRF homology) domain (domain or fragment)”: the stoichiometry N in experiment [1] was 2.

B1: GST-PinX1(132-328) (domain or fragment, UniProt Q96BK5 132-328, looked up)
chain: GKDLSSRSKTDLDCIFGKRQSKKTPEGDASPSTPEENETTTTSAFTIQEYFAKRMAALKNKPQVPVPGSDISETQVERKRGKKRNKEATGKDVESYLQPKAKRHTEGKPERAEAQERVAKKKSAPAEEQLRGPCWDQSSKASAQDAGDHVQPPEGRDFTLKPKKRRGKKKLQKPVEIAEDATLEETLVKKKKKKDSK
notes: PinX1 residues 132-328; also called GST-PinX1-C (132–328); CTD (C-terminal domain)
Take B1: the binding result in experiment [2] is “binds”.

B2: GST-PinX1(203-328) (domain or fragment, UniProt Q96BK5 203-328, looked up)
chain: SETQVERKRGKKRNKEATGKDVESYLQPKAKRHTEGKPERAEAQERVAKKKSAPAEEQLRGPCWDQSSKASAQDAGDHVQPPEGRDFTLKPKKRRGKKKLQKPVEIAEDATLEETLVKKKKKKDSK
notes: PinX1 residues 203-328 (TID)
As for B2, the binding result in experiment [3] is recorded as “binds”.
